Results: US20040106569
Marks after values point to notes of the source that are not given here.

How the values were obtained:
[1] = test system: GST-GSK3 fusion protein (Cell Signaling Technology)

## PKNbeta kinase domain with threonine 718 changed to aspartic acid
Myelin basic protein
  Activity (phosphorylation of MPB): -*!

## PKNbeta kinase domain comprising amino acids 535-889
Myelin basic protein
  Activity (phosphorylation of MPB): +*
  radioactive in vitro kinase assay, 32P incorporation by autoradiography (FIG. 11B): the full length wildtype protein kinase N beta as well as the kinase domain show activity
[1]
  non-radioactive in vitro kinase assay, phosphorylated substrate detected by Western blot: Only the full length wildtype protein kinase N beta or the kinase domain as defined in example 9 were suitable to phosphorylate the substrate

## PKNbeta kinase domain with threonine 718 changed to glutamic acid
Myelin basic protein
  Activity (phosphorylation of MPB): -*!

## PKNbeta kinase domain with threonine 718 changed to alanine
Myelin basic protein
  Activity (phosphorylation of MPB): -*

## PKNbeta kinase domain having a mutation at position 588 from lysine to glutamic acid
Myelin basic protein
  Activity (phosphorylation of MPB): -*

## PKNbeta kinase domain having a mutation at position 588 from lysine to arginine
Myelin basic protein
  Activity (phosphorylation of MPB): -*
